According to paper PMC4582013:
Where two headings read alike, the source gives them in different places.

What was measured:
DNA polymerase IV (Dpo4) [1] = target: T1, DNA polymerase IV (Dpo4) (Sulfolobus solfataricus, UniProt Q97W02 1-352); test: EMSA
T1 sequence: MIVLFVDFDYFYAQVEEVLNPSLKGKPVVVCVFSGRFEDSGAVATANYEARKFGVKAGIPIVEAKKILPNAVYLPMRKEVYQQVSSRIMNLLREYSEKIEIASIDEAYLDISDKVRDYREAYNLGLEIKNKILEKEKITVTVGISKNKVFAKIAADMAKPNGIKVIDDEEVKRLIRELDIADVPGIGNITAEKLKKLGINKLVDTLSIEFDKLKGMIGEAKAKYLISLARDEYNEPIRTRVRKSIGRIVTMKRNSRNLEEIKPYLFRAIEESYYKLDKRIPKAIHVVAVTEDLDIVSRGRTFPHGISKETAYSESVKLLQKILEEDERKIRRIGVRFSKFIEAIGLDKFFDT

DNA polymerase IV (Dpo4) [2] = target: T1, DNA polymerase IV (Dpo4); test: EMSA; remark: listed apart in the source

B1: 21/26-mer-dG1,8 (dsDNA)
DNA 1: AACGACGGCCAGTGAATTCGC
DNA 2: CCCGCGCGAATTCACTGGCCGTCGTT
modifications: template G6 (from 5') is dG1,8 = 8-(deoxyguanosin-N2-yl)-1-aminopyrene; lesion paired with primer 3' end
Work on B1 yielded a Kd (DNA polymerase IV (Dpo4) [1]) of 27 ± 3 nM.

B2: 20/26-mer-dG1,8 (dsDNA)
DNA 1: AACGACGGCCAGTGAATTCG
DNA 2: CCCGCGCGAATTCACTGGCCGTCGTT
modifications: template G6 (from 5') is dG1,8 = 8-(deoxyguanosin-N2-yl)-1-aminopyrene; lesion is the templating base
B2 gave a Kd (DNA polymerase IV (Dpo4) [2]) of 9 ± 2 nM.
